The record followed here is patent USRE49847 (dated 2024).

Sequences and labels used below:
T1: soluble CD22-Fc (R&D Systems) (UniProt P20273 20-687)
T1 construct: Bought reagent used to stain CD22 CARs; not shown: Fc part; detected with anti-human IgG Fc-gamma secondary
T1 sequence (looked up): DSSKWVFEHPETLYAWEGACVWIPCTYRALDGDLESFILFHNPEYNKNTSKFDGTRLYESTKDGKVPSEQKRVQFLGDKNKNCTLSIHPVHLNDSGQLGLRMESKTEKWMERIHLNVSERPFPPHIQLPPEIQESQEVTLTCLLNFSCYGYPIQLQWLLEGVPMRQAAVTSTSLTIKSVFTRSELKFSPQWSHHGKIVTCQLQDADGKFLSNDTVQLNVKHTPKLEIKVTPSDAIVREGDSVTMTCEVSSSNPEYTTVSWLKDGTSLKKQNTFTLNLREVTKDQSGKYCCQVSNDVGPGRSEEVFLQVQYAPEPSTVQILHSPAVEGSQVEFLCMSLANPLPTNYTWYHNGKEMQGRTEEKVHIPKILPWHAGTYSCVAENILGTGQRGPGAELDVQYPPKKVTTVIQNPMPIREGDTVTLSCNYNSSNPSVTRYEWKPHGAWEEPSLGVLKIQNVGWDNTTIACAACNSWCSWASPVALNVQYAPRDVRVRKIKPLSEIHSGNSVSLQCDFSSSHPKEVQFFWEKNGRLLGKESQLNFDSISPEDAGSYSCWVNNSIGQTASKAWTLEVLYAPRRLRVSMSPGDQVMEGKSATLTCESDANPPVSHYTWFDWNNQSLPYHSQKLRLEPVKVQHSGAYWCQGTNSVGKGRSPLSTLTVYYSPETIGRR

B1: control anti-CD22 CAR CG#c170 (other)
chain: EVQLQQSGPGLVKPSQTLSLTCAISGDSMLSNSDTWNWIRQSPSRGLEWLGRTYHRSTWYDDYASSVRGRVSINVDTSKNQYSLQLNAVTPEDTGVYYCARVRLQDGNSWSDAFDVWGQGTMVTVSSGGGGSQSALTQPASASGSPGQSVTISCTGTSSDVGGYNYVSWYQQHPGKAPKLMIYDVSNRPSGVSNRFSGSKSGNTASLTISGLQAEDEADYYCSSYTSSSTLYVFGTGTQLTVL
notes: the tie is by that description, not by a printed label; not shown: hinge, transmembrane, 4-1BB and CD3zeta parts of the CAR
B2: tandem CD22/CD19 CAR construct 187 (other)
chain: QSALTQPASASGSPGQSVTISCTGTSSDVGGYNYVSWYQQHPGKAPKLMIYDVSNRPSGVSNRFSGSKSGNTASLTISGLQAEDEADYYCSSYTSSSTLYVFGTGTQLTVLGGGGSEVQLQQSGPGLVKPSQTLSLTCAISGDSMLSNSDTWNWIRQSPSRGLEWLGRTYHRSTWYDDYASSVRGRVSINVDTSKNQYSLQLNAVTPEDTGVYYCARVRLQDGNSWSDAFDVWGQGTMVTVSSLAEAAAKEIVMTQSPATLSLSPGERATLSCRASQDISKYLNWYQQKPGQAPRLLIYHTSRLHSGIPARFSGSGSGTDYTLTISSLQPEDFAVYFCQQGNTLPYTFGQGTKLEIKGGGGSGGGGSGGGGSQVQLQESGPGLVKPSETLSLTCTVSGVSLPDYGVSWIRQPPGKGLEWIGVIWGSETTYYQSSLKSRVTISKDNSKNQVSLKLSSVTAADTAVYYCAKHYYYGGSYAMDYWGQGTLVTVSSTTTPAPRPPTPAPTIASQPLSLRPEACRPAAGGAVHTRGLDFACDIYIWAPLAGTCGVLLLSLVITLYCKRGRKKLLYIFKQPFMRPVQTTQEEDGCSCRFPEEEEGGCELRVKFSRSADAPAYQQGQNQLYNELNLGRREEYDVLDKRRGRDPEMGGKPRRKNPQEGLYNELQKDKMAEAYSEIGMKGERRRGKGHDGLYQGLSTATKDTYDALHMQALPPR
notes: Distal anti-CD22 scFv L/H short linker, LAEAAAK, proximal anti-CD19 scFv; leader 1-21 left out; also called CG#c187; c187
B3: tandem CD22/CD19 CAR construct 186 (other)
chain: QSALTQPASASGSPGQSVTISCTGTSSDVGGYNYVSWYQQHPGKAPKLMIYDVSNRPSGVSNRFSGSKSGNTASLTISGLQAEDEADYYCSSYTSSSTLYVFGTGTQLTVLGGGGSGGGGSGGGGSEVQLQQSGPGLVKPSQTLSLTCAISGDSMLSNSDTWNWIRQSPSRGLEWLGRTYHRSTWYDDYASSVRGRVSINVDTSKNQYSLQLNAVTPEDTGVYYCARVRLQDGNSWSDAFDVWGQGTMVTVSSGGGGSEIVMTQSPATLSLSPGERATLSCRASQDISKYLNWYQQKPGQAPRLLIYHTSRLHSGIPARFSGSGSGTDYTLTISSLQPEDFAVYFCQQGNTLPYTFGQGTKLEIKGGGGSGGGGSGGGGSQVQLQESGPGLVKPSETLSLTCTVSGVSLPDYGVSWIRQPPGKGLEWIGVIWGSETTYYQSSLKSRVTISKDNSKNQVSLKLSSVTAADTAVYYCAKHYYYGGSYAMDYWGQGTLVTVSSTTTPAPRPPTPAPTIASQPLSLRPEACRPAAGGAVHTRGLDFACDIYIWAPLAGTCGVLLLSLVITLYCKRGRKKLLYIFKQPFMRPVQTTQEEDGCSCRFPEEEEGGCELRVKFSRSADAPAYQQGQNQLYNELNLGRREEYDVLDKRRGRDPEMGGKPRRKNPQEGLYNELQKDKMAEAYSEIGMKGERRRGKGHDGLYQGLSTATKDTYDALHMQALPPR
notes: Distal anti-CD22 scFv L/H, GGGGS, proximal anti-CD19 scFv; leader 1-21 left out; also called CG#c186; c186
B4: tandem CD22/CD19 CAR construct 188 (other)
chain: QSALTQPASASGSPGQSVTISCTGTSSDVGGYNYVSWYQQHPGKAPKLMIYDVSNRPSGVSNRFSGSKSGNTASLTISGLQAEDEADYYCSSYTSSSTLYVFGTGTQLTVLGGGGSEVQLQQSGPGLVKPSQTLSLTCAISGDSMLSNSDTWNWIRQSPSRGLEWLGRTYHRSTWYDDYASSVRGRVSINVDTSKNQYSLQLNAVTPEDTGVYYCARVRLQDGNSWSDAFDVWGQGTMVTVSSGGGGSEIVMTQSPATLSLSPGERATLSCRASQDISKYLNWYQQKPGQAPRLLIYHTSRLHSGIPARFSGSGSGTDYTLTISSLQPEDFAVYFCQQGNTLPYTFGQGTKLEIKGGGGSGGGGSGGGGSQVQLQESGPGLVKPSETLSLTCTVSGVSLPDYGVSWIRQPPGKGLEWIGVIWGSETTYYQSSLKSRVTISKDNSKNQVSLKLSSVTAADTAVYYCAKHYYYGGSYAMDYWGQGTLVTVSSTTTPAPRPPTPAPTIASQPLSLRPEACRPAAGGAVHTRGLDFACDIYIWAPLAGTCGVLLLSLVITLYCKRGRKKLLYIFKQPFMRPVQTTQEEDGCSCRFPEEEEGGCELRVKFSRSADAPAYQQGQNQLYNELNLGRREEYDVLDKRRGRDPEMGGKPRRKNPQEGLYNELQKDKMAEAYSEIGMKGERRRGKGHDGLYQGLSTATKDTYDALHMQALPPR
notes: Distal anti-CD22 scFv L/H short linker, GGGGS, proximal anti-CD19 scFv; leader 1-21 left out; also called CG#c188; c188
B5: control anti-CD22 CAR CG#c176 (other)
chain: QSALTQPASASGSPGQSVTISCTGTSSDVGGYNYVSWYQQHPGKAPKLMIYDVSNRPSGVSNRFSGSKSGNTASLTISGLQAEDEADYYCSSYTSSSTLYVFGTGTQLTVLGGGGSEVQLQQSGPGLVKPSQTLSLTCAISGDSMLSNSDTWNWIRQSPSRGLEWLGRTYHRSTWYDDYASSVRGRVSINVDTSKNQYSLQLNAVTPEDTGVYYCARVRLQDGNSWSDAFDVWGQGTMVTVSS
notes: not shown: hinge, transmembrane, 4-1BB and CD3zeta parts of the CAR
B6: tandem CD22/CD19 CAR construct 185 (other)
chain: QSALTQPASASGSPGQSVTISCTGTSSDVGGYNYVSWYQQHPGKAPKLMIYDVSNRPSGVSNRFSGSKSGNTASLTISGLQAEDEADYYCSSYTSSSTLYVFGTGTQLTVLGGGGSGGGGSGGGGSEVQLQQSGPGLVKPSQTLSLTCAISGDSMLSNSDTWNWIRQSPSRGLEWLGRTYHRSTWYDDYASSVRGRVSINVDTSKNQYSLQLNAVTPEDTGVYYCARVRLQDGNSWSDAFDVWGQGTMVTVSSLAEAAAKEIVMTQSPATLSLSPGERATLSCRASQDISKYLNWYQQKPGQAPRLLIYHTSRLHSGIPARFSGSGSGTDYTLTISSLQPEDFAVYFCQQGNTLPYTFGQGTKLEIKGGGGSGGGGSGGGGSQVQLQESGPGLVKPSETLSLTCTVSGVSLPDYGVSWIRQPPGKGLEWIGVIWGSETTYYQSSLKSRVTISKDNSKNQVSLKLSSVTAADTAVYYCAKHYYYGGSYAMDYWGQGTLVTVSSTTTPAPRPPTPAPTIASQPLSLRPEACRPAAGGAVHTRGLDFACDIYIWAPLAGTCGVLLLSLVITLYCKRGRKKLLYIFKQPFMRPVQTTQEEDGCSCRFPEEEEGGCELRVKFSRSADAPAYQQGQNQLYNELNLGRREEYDVLDKRRGRDPEMGGKPRRKNPQEGLYNELQKDKMAEAYSEIGMKGERRRGKGHDGLYQGLSTATKDTYDALHMQALPPR
notes: Distal anti-CD22 scFv L/H, LAEAAAK, proximal anti-CD19 scFv; leader 1-21 left out; also called CG#c185; c185
B7: control anti-CD22 CAR CG#c175 (other)
chain: QSALTQPASASGSPGQSVTISCTGTSSDVGGYNYVSWYQQHPGKAPKLMIYDVSNRPSGVSNRFSGSKSGNTASLTISGLQAEDEADYYCSSYTSSSTLYVFGTGTQLTVLGGGGSGGGGSGGGGSEVQLQQSGPGLVKPSQTLSLTCAISGDSMLSNSDTWNWIRQSPSRGLEWLGRTYHRSTWYDDYASSVRGRVSINVDTSKNQYSLQLNAVTPEDTGVYYCARVRLQDGNSWSDAFDVWGQGTMVTVSS
notes: as for B5
B8: tandem CD22/CD19 CAR construct 184 (other)
chain: EVQLQQSGPGLVKPSQTLSLTCAISGDSMLSNSDTWNWIRQSPSRGLEWLGRTYHRSTWYDDYASSVRGRVSINVDTSKNQYSLQLNAVTPEDTGVYYCARVRLQDGNSWSDAFDVWGQGTMVTVSSGGGGSQSALTQPASASGSPGQSVTISCTGTSSDVGGYNYVSWYQQHPGKAPKLMIYDVSNRPSGVSNRFSGSKSGNTASLTISGLQAEDEADYYCSSYTSSSTLYVFGTGTQLTVLGGGGSEIVMTQSPATLSLSPGERATLSCRASQDISKYLNWYQQKPGQAPRLLIYHTSRLHSGIPARFSGSGSGTDYTLTISSLQPEDFAVYFCQQGNTLPYTFGQGTKLEIKGGGGSGGGGSGGGGSQVQLQESGPGLVKPSETLSLTCTVSGVSLPDYGVSWIRQPPGKGLEWIGVIWGSETTYYQSSLKSRVTISKDNSKNQVSLKLSSVTAADTAVYYCAKHYYYGGSYAMDYWGQGTLVTVSSTTTPAPRPPTPAPTIASQPLSLRPEACRPAAGGAVHTRGLDFACDIYIWAPLAGTCGVLLLSLVITLYCKRGRKKLLYIFKQPFMRPVQTTQEEDGCSCRFPEEEEGGCELRVKFSRSADAPAYQQGQNQLYNELNLGRREEYDVLDKRRGRDPEMGGKPRRKNPQEGLYNELQKDKMAEAYSEIGMKGERRRGKGHDGLYQGLSTATKDTYDALHMQALPPR
notes: Distal anti-CD22 scFv H/L short linker, GGGGS, proximal anti-CD19 scFv; leader 1-21 left out; also called CG#c184; c184
B9: CD22-62 CAR (other)
chain: EVQLQQSGPGLVKPSQTLSLTCAISGDSVLSNSDTWNWIRQSPSRGLEWLGRTYHRSTWYDDYASSVRGRVSINVDTSKNQYSLQLNAVTPEDTGVYYCARDRLQDGNSWSDAFDVWGQGTMVTVSSGGGGSGGGGSGGGGSQSALTQPASVSGSPGQSITISCTGTSSDVGGYNYVSWYQQHPGKAPKLMIYDVSNRPSGVSNRFSGSKSGNTASLTISGLQAEDEADYYCSSYTSSSTLYVFGTGTKVTVL
notes: CAR on primary human T cells; not shown: hinge, transmembrane, 4-1BB and CD3zeta parts of the CAR
B10: CD22-59 CAR (other)
chain: EVQLQQSGPGLVKPSQTLSLTCAISGDSVLSNSDTWNWIRQSPSRGLEWLGRTYHRSTWYDDYASSVRGRVSINVDTSKNQYSLQLNAVTPEDTGVYYCARDRLQDGNSWSDAFDVWGQGTMVTVSSGGGGSGGGGSGGGGSQSALTQPASVSGSPGQSITISCTGSSSDIGGFNYVSWYQQHAGEAPKLMIYEVTNRPSGVSDRFSGSKSDNTASLTISGLQAEDEADYYCSSYASGSPLYVFGTGTKVTVL
notes: as for B9

The first experiment concerns the target T1, soluble CD22-Fc (R&D Systems). Kind of experiment: FACS surface staining of transduced JNL cells with CD22-Fc.
As to B1, the binding result is “binds”.

As to B2, the binding result was “binds”.

Take B3: the binding result was “binds”.

As for B4, the binding result is on record as “binds”.

As to B5, the binding result is reported as “binds”.

In the case of B6, the binding result is “binds”.

As for B7, the binding result is “binds”.

Consider B8, for which the binding result is given as “binds”.

For another experiment the target is unchanged. In words: flow cytometry, soluble CD22-Fc plus anti-human Fc-PE on CAR-transduced primary T cells (FIG. 4).
With B9, the MFI is > 20000.

Turning to B10, the MFI is > 20000.
